Consider one molecule from US20030215451A1 (Genentech, published 2003).

For one experiment, the target named is integrin αvβ3 (UniProt P06756 31-1048; P05106 27-788). As to the kind of experiment: cell-based or functional assay.
Experiment [1] concerns the target T1, Tie2 receptor (full length receptor construct) (UniProt Q02763 23-1124, limits assumed).
T1 construct: whole, on cells; Full length receptor expressed in 293 cells and assayed from RIPA lysate, not on intact cells
As to the kind of experiment: co-immunoprecipitation from co-transfected 293 cells: anti-Tie2 IP, anti-gD immunoblot. (In western blotting, separated proteins are transferred to a membrane and probed.)

In experiment [2] the target is T2, Tie1 receptor (full length receptor construct) (UniProt P35590 22-1138, limits assumed).
T2 construct: whole, on cells; Full length receptor expressed in 293 cells and assayed from RIPA lysate, not on intact cells
As to the kind of experiment: co-immunoprecipitation from co-transfected 293 cells: anti-Tie1 IP, anti-gD immunoblot.

Sequence of integrin αvβ3 (P06756 31-1048, chain 1 of 2): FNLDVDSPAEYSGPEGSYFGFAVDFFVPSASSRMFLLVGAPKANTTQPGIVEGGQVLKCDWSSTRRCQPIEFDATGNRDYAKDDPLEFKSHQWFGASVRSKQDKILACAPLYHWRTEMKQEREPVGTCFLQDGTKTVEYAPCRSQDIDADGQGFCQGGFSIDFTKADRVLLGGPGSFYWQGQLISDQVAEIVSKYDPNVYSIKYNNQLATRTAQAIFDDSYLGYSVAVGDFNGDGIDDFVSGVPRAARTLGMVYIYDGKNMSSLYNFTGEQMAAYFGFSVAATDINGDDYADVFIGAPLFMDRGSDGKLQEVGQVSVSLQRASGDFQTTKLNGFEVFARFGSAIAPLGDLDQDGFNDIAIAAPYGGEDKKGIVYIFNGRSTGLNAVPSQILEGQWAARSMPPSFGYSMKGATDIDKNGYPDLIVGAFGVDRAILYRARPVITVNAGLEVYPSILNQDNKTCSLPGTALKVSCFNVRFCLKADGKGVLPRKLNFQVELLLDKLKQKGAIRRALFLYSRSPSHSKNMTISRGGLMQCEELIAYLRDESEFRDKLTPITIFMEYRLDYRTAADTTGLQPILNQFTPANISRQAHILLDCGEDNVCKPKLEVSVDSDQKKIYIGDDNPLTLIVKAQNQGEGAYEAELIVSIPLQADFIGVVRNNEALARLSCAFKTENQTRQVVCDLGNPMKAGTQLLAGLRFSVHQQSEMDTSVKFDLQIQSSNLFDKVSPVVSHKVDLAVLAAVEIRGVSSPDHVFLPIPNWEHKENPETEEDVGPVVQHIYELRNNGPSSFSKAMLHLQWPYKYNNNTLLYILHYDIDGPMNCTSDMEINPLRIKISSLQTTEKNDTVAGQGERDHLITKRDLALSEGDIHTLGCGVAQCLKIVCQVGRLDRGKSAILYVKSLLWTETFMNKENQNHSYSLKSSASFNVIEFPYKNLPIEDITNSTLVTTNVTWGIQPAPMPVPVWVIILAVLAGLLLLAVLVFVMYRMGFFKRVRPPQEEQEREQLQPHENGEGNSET
Sequence of integrin αvβ3 (P05106 27-788, chain 2 of 2): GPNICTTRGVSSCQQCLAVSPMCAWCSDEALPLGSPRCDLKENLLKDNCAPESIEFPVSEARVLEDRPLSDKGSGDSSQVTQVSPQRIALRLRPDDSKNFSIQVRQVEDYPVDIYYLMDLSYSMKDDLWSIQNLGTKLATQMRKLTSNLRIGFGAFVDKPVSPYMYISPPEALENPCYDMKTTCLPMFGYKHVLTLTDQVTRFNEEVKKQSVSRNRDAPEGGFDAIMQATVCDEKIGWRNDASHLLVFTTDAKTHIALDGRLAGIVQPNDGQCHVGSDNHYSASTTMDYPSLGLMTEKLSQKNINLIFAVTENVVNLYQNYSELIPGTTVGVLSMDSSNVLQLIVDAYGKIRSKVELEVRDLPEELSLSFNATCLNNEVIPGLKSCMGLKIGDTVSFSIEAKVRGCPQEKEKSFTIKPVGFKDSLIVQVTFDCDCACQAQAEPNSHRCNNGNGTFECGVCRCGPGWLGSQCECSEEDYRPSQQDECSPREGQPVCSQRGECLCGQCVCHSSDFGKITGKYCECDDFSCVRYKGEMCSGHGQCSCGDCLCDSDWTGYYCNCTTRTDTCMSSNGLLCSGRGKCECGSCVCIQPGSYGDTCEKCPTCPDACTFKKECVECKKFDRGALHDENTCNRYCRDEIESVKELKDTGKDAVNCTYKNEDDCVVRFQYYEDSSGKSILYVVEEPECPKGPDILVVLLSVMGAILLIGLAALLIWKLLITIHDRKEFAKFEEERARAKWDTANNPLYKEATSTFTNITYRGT
T2 sequence (P35590 22-1138 limits assumed): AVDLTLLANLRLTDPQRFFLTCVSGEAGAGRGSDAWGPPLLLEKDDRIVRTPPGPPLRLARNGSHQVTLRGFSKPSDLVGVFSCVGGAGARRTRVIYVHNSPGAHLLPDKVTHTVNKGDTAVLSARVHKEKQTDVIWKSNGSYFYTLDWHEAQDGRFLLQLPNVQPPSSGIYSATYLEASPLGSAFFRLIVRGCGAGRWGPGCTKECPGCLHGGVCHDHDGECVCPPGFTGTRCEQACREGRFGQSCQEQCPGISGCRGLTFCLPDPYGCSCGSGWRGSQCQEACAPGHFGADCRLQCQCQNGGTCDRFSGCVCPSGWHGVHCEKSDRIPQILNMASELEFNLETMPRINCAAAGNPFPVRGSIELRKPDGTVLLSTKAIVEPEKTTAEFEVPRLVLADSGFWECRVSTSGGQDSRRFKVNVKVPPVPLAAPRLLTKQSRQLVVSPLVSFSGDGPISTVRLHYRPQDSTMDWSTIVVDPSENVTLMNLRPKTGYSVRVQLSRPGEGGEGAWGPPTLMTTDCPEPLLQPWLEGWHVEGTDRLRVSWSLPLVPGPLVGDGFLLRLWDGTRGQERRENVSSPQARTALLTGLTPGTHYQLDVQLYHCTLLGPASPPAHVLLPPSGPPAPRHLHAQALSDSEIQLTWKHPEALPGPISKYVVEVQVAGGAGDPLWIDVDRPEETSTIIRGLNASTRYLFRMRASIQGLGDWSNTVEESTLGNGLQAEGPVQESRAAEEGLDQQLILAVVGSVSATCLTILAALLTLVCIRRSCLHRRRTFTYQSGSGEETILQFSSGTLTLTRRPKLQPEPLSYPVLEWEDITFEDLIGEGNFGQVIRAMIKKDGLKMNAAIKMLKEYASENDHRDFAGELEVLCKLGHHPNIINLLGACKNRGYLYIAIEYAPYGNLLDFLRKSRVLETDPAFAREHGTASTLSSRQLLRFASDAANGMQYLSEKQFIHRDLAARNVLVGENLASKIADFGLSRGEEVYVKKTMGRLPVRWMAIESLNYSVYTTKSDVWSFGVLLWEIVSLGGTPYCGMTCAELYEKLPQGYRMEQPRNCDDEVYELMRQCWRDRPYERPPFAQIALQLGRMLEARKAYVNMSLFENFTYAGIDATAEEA
T1 sequence (Q02763 23-1124 limits assumed): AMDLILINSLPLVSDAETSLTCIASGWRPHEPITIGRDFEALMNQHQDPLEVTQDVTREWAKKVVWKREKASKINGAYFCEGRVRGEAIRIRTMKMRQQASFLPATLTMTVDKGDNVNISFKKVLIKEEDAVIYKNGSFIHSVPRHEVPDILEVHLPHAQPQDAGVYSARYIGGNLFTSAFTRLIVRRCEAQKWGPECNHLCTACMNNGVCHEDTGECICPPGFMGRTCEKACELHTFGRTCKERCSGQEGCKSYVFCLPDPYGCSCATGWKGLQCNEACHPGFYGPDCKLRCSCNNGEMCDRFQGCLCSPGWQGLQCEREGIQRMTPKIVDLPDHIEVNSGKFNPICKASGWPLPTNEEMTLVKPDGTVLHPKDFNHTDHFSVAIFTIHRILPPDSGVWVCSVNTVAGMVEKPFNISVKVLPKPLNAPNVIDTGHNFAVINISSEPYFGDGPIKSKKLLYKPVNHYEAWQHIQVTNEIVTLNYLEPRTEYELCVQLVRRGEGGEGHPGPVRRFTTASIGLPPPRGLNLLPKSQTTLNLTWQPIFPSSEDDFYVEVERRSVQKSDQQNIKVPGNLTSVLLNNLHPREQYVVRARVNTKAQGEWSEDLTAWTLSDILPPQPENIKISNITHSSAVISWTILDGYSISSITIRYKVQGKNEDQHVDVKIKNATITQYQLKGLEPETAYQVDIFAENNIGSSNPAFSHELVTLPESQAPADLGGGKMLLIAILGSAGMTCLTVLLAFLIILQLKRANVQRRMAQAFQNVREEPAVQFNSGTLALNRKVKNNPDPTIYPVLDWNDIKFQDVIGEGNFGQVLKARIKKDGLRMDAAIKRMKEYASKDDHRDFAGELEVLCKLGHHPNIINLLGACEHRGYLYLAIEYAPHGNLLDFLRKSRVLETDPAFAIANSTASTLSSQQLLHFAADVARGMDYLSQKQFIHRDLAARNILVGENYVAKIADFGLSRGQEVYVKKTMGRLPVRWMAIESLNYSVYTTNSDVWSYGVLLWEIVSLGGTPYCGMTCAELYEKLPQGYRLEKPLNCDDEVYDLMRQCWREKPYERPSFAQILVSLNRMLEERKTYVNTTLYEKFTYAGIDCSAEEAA

B1: recombinant human Angptl3 tagged with an amino-terminal gD epitope (ligand, not shown: small tags and cut ends)
chain: SRIDQDNSSFDSLSPEPKSRFAMLDDVKILANGLLQLGHGLKDFVHKTKGQINDIFQKLNIFDQSFYDLSLQTSEIKEEEKELRRTTYKLQVKNEEVKNMSLELNSKLESLLEEKILLQQKVKYLEEQLTNLIQNQPETPEHPEVTSLKTFVEKQDNSIKDLLQTVEDQYKQLNQQHSQIKEIENQLRRTSIQEPTEISLSSKPRAPRTTPFLQLNEIRNVKHDGIPAECTTIYNRGEHTSGMYAIRPSNSQVFHVYCDVISGSPWTLIQHRIDGSQNFNETWENYKYGFGRLDGEFWLGLEKIYSIVKQSNYVLRIELEDWKDNKHYIEYSFYLGNHETNYTLHLVAITGNVPNAIPENKDLVFSTWDHKAKGHFNCPEGYSGGWWWHDECGENNLNGKYNKPRAKSKPERRRGLSWKSQNGRLYSIKSTKMLIHPTDSESFE
modifications: glycosylated (PNGase-F sensitive)
notes: Purified from baculovirus-infected insect cells for the adhesion and migration assays; Expressed in transiently transfected 293 cells for the co-immunoprecipitation; Both are treated here as one molecule; also called hAngptl3; gD-tagged Angptl3
For the molecule B1, the “migration of HMVEC (cells/microscopic field)” value with integrin αvβ3 is 2.5 fold. In addition, the binding result in experiment [1] and in experiment [2] was “no binding” in each case.
